Data reported in the RNAGym collection of RNA variant scans (doi:10.1073/pnas.2313332121).

B1: TPR t1 (parent)
chain: GACCAAUCUGCCCUCAGAGCUCGAGAACAUCUUCGGAUGCAGAGGAGGCAGGCUUCGGUGGCGCGAUAGCGCCAACGUCCUCAACCUCCAAUGCAUCCCACCACAUGAUGAUGCCUGAAGAGCCUUGGUUUUUUG

Variants of: B1
Assay: polymerase ribozyme fitness, log enrichment relative to wild type (log ratio); higher = more active; in vitro selection for triplet polymerase activity
Summary of the method: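 Each subunit of a heterodimeric triplet polymerase ribozyme was mutagenized into a library by PCR, transcribed, and subjected to one round of in vitro selection, run in triplicate. Libraries were annealed with a biotinylated primer, the partner subunit and triplets, incubated frozen at −7 °C, and extended constructs were gel-excised, captured on streptavidin beads and recovered by RT-PCR. Input and output libraries were sequenced on Illumina, keeping genotypes with ≥10 input reads and ≥1 read per output. Fitness is log base 2 of genotype enrichment divided by wild-type enrichment, from inverse-variance-weighted replicate averages.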

Variant	polymerase ribozyme fitness (log ratio)
G57C C114G U131C	-2.69
C56U U78C	-0.427
U55G C73U G110A	-0.834
G58C U109G G117A	-5.76
C56U G113U C123G U130G	-2.36
G57U U106G G128C	-3.98
C56G G63U	-4.87
C56U C94U	0.204
C56U A90G C104U G117A A118U U131G	-2.92
C56G A74U U81A U87A	-4.29
C56A G71U U78G A105G A119U G122A	-5.65
C56A C101A	-0.979
G58C C97U	-0.321
C56G U112C	1.26
G57U U87A A90C C101U C114U U125A	-4.29
U54G C72A	-1.41
U54G U109G	-4.29
C56A U81A G117A	-1.94
C56G U109C	-3.23
U55A C101U A121U	1.89
C56U U81C	0.0987
U55C A121G	1.84
G57A C62G	-3.37
G58A U130G	-0.629

Variant	polymerase ribozyme fitness (log ratio)
U55A U78G C82A G110A	-2.58
U55C G61A	-0.329
C56U A95G C101A	-1.46
G58A G122A	-0.321
G57U G128A	-1.33
U55C C85A	-2.73
C56U A95C G128C	-2.78
C56G G135A	-1.39
U54G C56G C80G A84G G117U	-6.69
C56G G69U C82U A95U G127U	-3.08
C56G A66U A74C G122A	-6.51
C56G C98U G110A	-1.9
C56U G57U C70A	-2.65
G58A A83U U106A	-1.14
G57U G71A	-0.471
G58C U59G C86G	-0.556
G58C G60C	-0.636
C56G A103U U109G	-6.5
G58U C62A U92A	-5.81
U55C G69C C76U C89A A121U U125G	-4.56
G58C C115G C123A G135A	-3.89
U55C U125A	-1.11
U55G C62U C102A	-1.77
G57U C72U G110C	-4.22

Variant	polymerase ribozyme fitness (log ratio)
G57C C97U G113C	-3.16
C56G C64G	-7.2
G57U U129C	-1.6
C56U G135C	0.59
C56U G135A	-0.436
C56G C98G	-4.96
C56G G71A	-4.31
U54G C89A U131G	-2.74
G58U G60A G77U	0.541
U54G C89U	-0.559
C56G U87G A100C	-1.94
C56U C73A C85A A91G	-5.09
C56U C72A A100C C104U A121G	1.21
C56U A95C A118C C124A U132A	-0.917
C56G G58A G77A	0.427
C56A C80U G120C C123G	-0.961
C56U A66C U78A	-2.84
G58A A90C	-1.28
C56U C124A	1.7
C56A A121U	1.42
C56A A121G	1.77
C56G A74U G120U G127A	-1.98
G57C U125A	-0.636
U55C C56U U125A	-0.641

Variant	polymerase ribozyme fitness (log ratio)
C56U C98U	-0.841
C56G G57U C101G A111C	-1.77
C56U U78G U106G G110A U129A U131C	-4.97
G57U C89A	-1.5
G57C G63A G69U	-1.39
U55A G69C C104U C115A	-0.166
G57U G122A	-1.56
U55A C62A U78C C79A U125G U133G	-3.28
C56G U81A U125A	-1.81
U54G G63U C88U C89A A103U G122U C124A	-7.39
C56A G71A U78G G128C U129A	-4.83
U55G C79A C82U	-1.09
C56G C115U G135C	-1.67
C56A C115A U126C	-1.19
C56U A74C A91G	-1.72
G57A G69U C86A C101G	-2.75
C56A G63C	-2.33
G57A A66C	-2.98
U54G C104G	-7.42
C56U C73A	-0.837
G58A C82U C115A C124U	-0.385
G57U C104A U106C U125A U131C	-1.82
C56G G122A	-1.46
U55A G69U C82G	0.171

Variant	polymerase ribozyme fitness (log ratio)
U55C G61A U125A	-0.857
C56U A90G	0.117
C56A C124U	1.18
C56A C124G	1.08
G57C A100U U112C U125C	0.722
C56U G57U G69U C114U C115A	-4.53
C56U A83C U106A A118U C123G	1.63
G58U C86A G117U U130G	-3.79
G57U G77U G113A G127C	-2.59
G58A C124A	2.39
G57A C72A G120A	-0.828
C56G C89G	-3.34
G57A U106G A121C	-0.75
C56U U130G	-1.27
C56A A68G G120C	-4.19
C56U A121U	1.6
C56G G93A A95G G113A G120C	-3.38
C56U U106A G120A	0.351
U55C C70A C97U U116A	-4.83
C56U G77C	-0.361
C56U G77A	0.388
G58A A103G	-4.88
C56G C86U	0.0765
C56U G93A G110C	-5.11

Variant	polymerase ribozyme fitness (log ratio)
U55G C85A	-1.66
G57U A83C G93C	-1.15
G58A C79A	-1
C56A C99U C102U	-5.77
U55A U81A G107U A111U	-4.76
C56A C86A	-0.76
C56G G77A	-0.468
C56G G77C	-0.126
U55A G93A A121U	1.57
C56U C73G G122A U130A	-2.91
U55A G61C U96A G120C	-1.22
U55A G63A C85G C88G	-2.1
C56U A100U U129A	-1.49
C56A C73G	-2.34
C56U G120C G127U	2.09
G58C G120U	0.305
G58U C73A	-0.295
C56A C123G	1.24
U54G C56G C72A G93A C124A U125A	-2.75
C56G U109A G113C	-5.42
G58A G71A C89A C123A	-3.72
G58U C82U C94U C114A	-2.23
G57A C72U G113A C114U	-2.53
C56G	-0.465

Variant	polymerase ribozyme fitness (log ratio)
C56U	0.0734
C56A	-0.243
C56A C73U A84U G120U	-1.05
U55A G57A G71C G113A	-2.54
U54G C123G	0.306
G57A C72U G127U	-2.52
G57U C62G U112A	-2.56
G57A C72U	-1.29
C56A C86G C102A	-3.16
G57U C72U C102A	-2.25
C56G G127U	-1.1
G58A G63U A118G	-0.392
C56A G127U U129A U130C	-1.7
G57A C76U A90U	-1.14
G57C U116C	-0.186
U55C C56U	0.598
G58C C102A G120A	-2.34
C56G G61C	-5.99
G58C C98G G120C C123U	-6.14
G58C C85U C123G U132A	1.38
G57U U59A C124A	1.82
C56U C98A G120U	-4.12
C56U G122A	-0.36
